Series [1] deals with the molecule itself. Description: counting of GFP bleaching steps of single spots (TIRF microscopy); live HEK-293 cells with Kv1.3-loopBAD-GFP and BirA; biotinylated channels at the cell surface immobilised with NeutrAvidin (50 nM) on biotin-collagen-coated glass; step distribution fitted to a binomial with p = 0.67.
Series [2] addresses T1, KCNE4-loopBAD-GFP (UniProt Q9WTW3 1-170, biotin on the loopBAD tag (BirA biotin ligase co-expressed)).
T1 construct: KCNE4; also called KCNE4-pEGFP with loopBAD; KCNE4-GFP; source: HEK-293, electroporated together with BirA, on the cell surface; not shown: loopBAD (biotin acceptor domain), N-terminal, kept
T1 sequence (looked up): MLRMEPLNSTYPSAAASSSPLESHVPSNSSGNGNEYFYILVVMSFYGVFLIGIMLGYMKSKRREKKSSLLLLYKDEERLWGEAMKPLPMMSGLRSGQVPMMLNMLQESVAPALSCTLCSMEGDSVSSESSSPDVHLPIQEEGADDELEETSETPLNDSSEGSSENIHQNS
Briefly: counting of GFP bleaching steps of single spots (TIRF microscopy); live HEK-293 cells with KCNE4-loopBAD-GFP, Kv1.3-Apple and BirA; biotinylated KCNE4 at the cell surface immobilised with NeutrAvidin (50 nM); motionless GFP spots colocalising with Kv1.3-Apple. As to conditions: partners not purified.

B1: Kv1.3-loopBAD-GFP (natural protein, UniProt P15384 1-525, looked up)
chain: MTVVPGDHLLEPEAAGGGGGDPPQGGCVSGGGCDRYEPLPPALPAAGEQDCCGERVVINISGLRFETQLKTLCQFPETLLGDPKRRMRYFDPLRNEYFFDRNRPSFDAILYYYQSGGRIRRPVNVPIDIFSEEIRFYQLGEEAMEKFREDEGFLREEERPLPRRDFQRQVWLLFEYPESSGPARGIAIVSVLVILISIVIFCLETLPEFRDEKDYPASPSQDVFEAANNSTSGASSGASSFSDPFFVVETLCIIWFSFELLVRFFACPSKATFSRNIMNLIDIVAIIPYFITLGTELAERQGNGQQAMSLAILRVIRLVRVFRIFKLSRHSKGLQILGQTLKASMRELGLLIFFLFIGVILFSSAVYFAEADDPSSGFNSIPDAFWWAVVTMTTVGYGDMHPVTIGGKIVGSLCAIAGVLTIALPVPVIVSNFNYFYHRETEGEEQAQYMHVGSCQHLSSSAEELRKARSNSTLSKSEYMVIEEGGMNHSAFPQTPFKTGNSTATCTTNNNPNSCVNIKKIFTDV
modifications: biotin on the loopBAD tag (BirA biotin ligase co-expressed)
notes: voltage-gated potassium channel Kv1.3; also called GFP-Kv1.3-loopBAD; pEGFP-Kv1.3 with loopBAD; source: HEK-293, electroporated together with BirA, on the cell surface; not shown: loopBAD (biotin acceptor domain), internal (first extracellular loop), kept
Take B1: the “stoichiometry N” value in series [1] was 4.

B2: Kv1.3-Apple (natural protein, UniProt P15384 1-525, looked up)
chain: MTVVPGDHLLEPEAAGGGGGDPPQGGCVSGGGCDRYEPLPPALPAAGEQDCCGERVVINISGLRFETQLKTLCQFPETLLGDPKRRMRYFDPLRNEYFFDRNRPSFDAILYYYQSGGRIRRPVNVPIDIFSEEIRFYQLGEEAMEKFREDEGFLREEERPLPRRDFQRQVWLLFEYPESSGPARGIAIVSVLVILISIVIFCLETLPEFRDEKDYPASPSQDVFEAANNSTSGASSGASSFSDPFFVVETLCIIWFSFELLVRFFACPSKATFSRNIMNLIDIVAIIPYFITLGTELAERQGNGQQAMSLAILRVIRLVRVFRIFKLSRHSKGLQILGQTLKASMRELGLLIFFLFIGVILFSSAVYFAEADDPSSGFNSIPDAFWWAVVTMTTVGYGDMHPVTIGGKIVGSLCAIAGVLTIALPVPVIVSNFNYFYHRETEGEEQAQYMHVGSCQHLSSSAEELRKARSNSTLSKSEYMVIEEGGMNHSAFPQTPFKTGNSTATCTTNNNPNSCVNIKKIFTDV
notes: voltage-gated potassium channel Kv1.3; also called Kv1.3 tagged with mApple; source: HEK-293, electroporated, on the cell surface
In the case of B2, in series [2], the “stoichiometry N” value was not above 4 KCNE4 per Kv1.3 channel.

The record behind these values is PMC7290415, “Functional Consequences of the Variable Stoichiometry of the Kv1.3-KCNE4 Complex” (Cells, 2020).
